This is an account of results in the supplement of paper PMC5998384.

Data set [1] concerns HeLa Kyoto. Nature of the data set: solubility in G1/S (NP-40 vs SDS abundance) (log2 ratio); higher = more soluble. The settings on record: cell cycle stage: G1/S.
In data set [2] the test system is HeLa Kyoto. The experiment in a line: melting temperature (median over replicates), in situ; higher = more thermally stable.
In data set [3] the test system is HeLa Kyoto. The experiment in a line: solubility change mitosis vs G1/S (difference of NP-40 vs SDS log2 ratios) (log2 ratio difference); higher = more soluble in mitosis.
In data set [4] the test system is HeLa Kyoto. Nature of the data set: thermal stability score vs G1/S (z-score of summed log2 fold changes over temperatures); higher = more thermally stable than in G1/S.
The mark [5] stands for this setting: cell cycle stage: early G1 (4.5 h after nocodazole release).
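For melting temperature (median over replicates), in situ in this document: HeLa Kyoto cells synchronized by double thymidine or nocodazole block, proteins quantified by TMT10plex mass spectrometry, three independent biological replicates.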
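For solubility change mitosis vs G1/S (difference of NP-40 vs SDS log2 ratios) in this document: synchronized HeLa Kyoto cells (double thymidine block for G1/S, nocodazole release for mitosis), protein amounts in NP-40 versus SDS lysates quantified by mass spectrometry, three biological replicates.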
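For solubility in G1/S (NP-40 vs SDS abundance) in this document: HeLa Kyoto cells arrested at G1/S by double thymidine block, proteins quantified by TMT10plex mass spectrometry in mild NP-40 versus SDS extracts, three biological replicates.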
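For thermal stability score vs G1/S (z-score of summed log2 fold changes over temperatures) in this document: synchronized HeLa Kyoto cells, proteins quantified by TMT10plex mass spectrometry, three biological replicates, mitosis taken 0.5 h after nocodazole release, G1/S directly after double thymidine block.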

On to AKAP13, for which the “solubility in G1/S (log2)” value in the data set with HeLa Kyoto [1] is -0.0395. Moreover, the values for the melting temperature with HeLa Kyoto [2] (cell cycle stage: G1/S) and with HeLa Kyoto [2] (cell cycle stage: mitosis) were 50.6 °C and 49.6 °C, respectively. Also, the “solubility change mitosis (log2)” value in the data set on HeLa Kyoto [3] is -0.118. In addition, the values for the thermal stability score with HeLa Kyoto [4] (setting [5]) and in the data set on HeLa Kyoto [4] (cell cycle stage: mitosis) were -0.167 and 1.43, respectively.
Regarding PPP2R5A, the “solubility in G1/S (log2)” value in the data set on HeLa Kyoto [1] was 0.0389. Besides, the melting temperature in the data set on HeLa Kyoto [2] (cell cycle stage: G1/S) was found to be 50.8 °C; in the data set with HeLa Kyoto [2] (cell cycle stage: mitosis) it was 50.5 °C. For the same substance, the “solubility change mitosis (log2)” value in the data set with HeLa Kyoto [3] is -0.192. For the same substance, the values for the thermal stability score in the data set with HeLa Kyoto [4] (setting [5]) and in the data set with HeLa Kyoto [4] (cell cycle stage: mitosis) were 0.702 and 1.43, respectively.
Consider “MDGRTPRPQDAPARRKPKAKAPLPPAETKYTDVSSAADSVESTAFIMEQKENMIDKDVELSVVLPGDIIKSTTVHGSKPMMDLLIFLCAQYHLNPSSYTIDLLSAEQNHIKFKPNTPIGMLEVEKVILKPKMLDKKKPTPIIPEKTVRVVINFKKTQKTIVRVSPHASLQELAPIICSKCEFDPLHTLLLKDYQSQEPLDLTKSLNDLGLRELYAMDVNRESCQISQNLDIMKEKENKGFFSFFQRSKKKRDQTASAPATPLVNKHRPTFTRSNTISKPYISNTLPSDAPKKRRAPLPPMPASQSVPQDLAHIQERPASCIVKSMSVDETDKSPCEAGRVRAGSLQLSSMSAGNSSLRRTKRKAPSPPSKIPPHQSDENSRVTALQPVDGVPPDSASEANSPEELSSPAGISSDYSLEEIDEKEELSEVPKVEAENISPKSQDIPFVSTDIINTLKNDPDSALGNGSGEFSQNSMEEKQETKSTDGQEPHSVVYDTSNGKKVVDSIRNLKSLGPNQENVVQNEIIVYPENTEDNMKNGVKKTEINVEGVAKNNNIDMEVERPSNSEAHETDTAISYKENHLAASSVPDQKLNQPSAEKTKDAAIQTTPSCNSFDGKHQDHNLSDSKVEECVQTSNNNISTQHSCLSSQDSVNTSREFRSQGTLIIHSEDPLTVKDPICAHGNDDLLPPVDRIDKNSTASYLKNYPLYRQDYNPKPKPSNEITREYIPKIGMTTYKIVPPKSLEISKDWQSETIEYKDDQDMHALGKKHTHENVKETAIQTEDSAISESPEEPLPNLKPKPNLRTEHQVPSSVSSPDDAMVSPLKPAPKMTRDTGTAPFAPNLEEINNILESKFKSRASNAQAKPSSFFLQMQKRVSGHYVTSAAAKSVHAAPNPAPKELTNKEAERDMLPSPEQTLSPLSKMPHSVPQPLVEKTDDDVIGQAPAEASPPPIAPKPVTIPASQVSTQNLKTLKTFGAPRPYSSSGPSPFALAVVKRSQSFSKERTESPSASALVQPPANTEEGKTHSVNKFVDIPQLGVSDKENNSAHNEQNSQIPTPTDGPSFTVMRQSSLTFQSSDPEQMRQSLLTAIRSGEAAAKLKRVTIPSNTISVNGRSRLSHSMSPDAQDGH [COBLL1]”, for which the “solubility in G1/S (log2)” value in the data set with HeLa Kyoto [1] was 0.0471. Also, the melting temperature with HeLa Kyoto [2] (cell cycle stage: G1/S) was 50.5 °C; with HeLa Kyoto [2] (cell cycle stage: mitosis) it was 50.8 °C. The “solubility change mitosis (log2)” value in the data set on HeLa Kyoto [3] is -0.0197. Moreover, the thermal stability score was -0.155 in the data set with HeLa Kyoto [4] (setting [5]) and -0.336 with HeLa Kyoto [4] (cell cycle stage: mitosis).
Regarding DSP, in the data set on HeLa Kyoto [1], the “solubility in G1/S (log2)” value was -0.687. Besides, the values for the melting temperature in the data set on HeLa Kyoto [2] (cell cycle stage: G1/S) and in the data set on HeLa Kyoto [2] (cell cycle stage: mitosis) were 46.7 °C and 46.6 °C, respectively. The “solubility change mitosis (log2)” value in the data set on HeLa Kyoto [3] was -0.0238. Also, the thermal stability score in the data set on HeLa Kyoto [4] (setting [5]) is -3.13; with HeLa Kyoto [4] (cell cycle stage: mitosis), 0.479.
Take “MVLWILWRPFGFSGRFLKLESHSITESKSLIPVAWTSLTQMLLEAPGIFLLGQRKRFSTMPETETHERETELFSPPSDVRGMTKLDRTAFKKTVNIPVLKVRKEIVSKLMRSLKRAALQRPGIRRVIEDPEDKESRLIMLDPYKIFTHDSFEKAELSVLEQLNVSPQISKYNLELTYEHFKSEEILRAVLPEGQDVTSGFSRIGHIAHLNLRDHQLPFKHLIGQVMIDKNPGITSAVNKINNIDNMYRNFQMEVLSGEQNMMTKVRENNYTYEFDFSKVYWNPRLSTEHSRITELLKPGDVLFDVFAGVGPFAIPVAKKNCTVFANDLNPESHKWLLYNCKLNKVDQKVKVFNLDGKDFLQGPVKEELMQLLGLSKERKPSVHVVMNLPAKAIEFLSAFKWLLDGQPCSSEFLPIVHCYSFSKDANPAEDVRQRAGAVLGISLEACSSVHLVRNVAPNKEMLCITFQIPASVLYKNQTRNPENHEDPPLKRQRTAEAFSDEKTQIVSNT [TRMT5]”: the “solubility in G1/S (log2)” value in the data set on HeLa Kyoto [1] worked out at 0.289. In addition, the melting temperature in the data set on HeLa Kyoto [2] (cell cycle stage: G1/S) worked out at 57.7 °C; in the data set on HeLa Kyoto [2] (cell cycle stage: mitosis) it was 56.1 °C. Further, in the data set with HeLa Kyoto [3], the “solubility change mitosis (log2)” value is -0.0856. Besides, the thermal stability score in the data set on HeLa Kyoto [4] (setting [5]) is -0.613; in the data set on HeLa Kyoto [4] (cell cycle stage: mitosis) it was -0.00215.
As to “MATEIGSPPRFFHMPRFQHQAPRQLFYKRPDFAQQQAMQQLTFDGKRMRKAVNRKTIDYNPSVIKYLENRIWQRDQRDMRAIQPDAGYYNDLVPPIGMLNNPMNAVTTKFVRTSTNKVKCPVFVVRWTPEGRRLVTGASSGEFTLWNGLTFNFETILQAHDSPVRAMTWSHNDMWMLTADHGGYVKYWQSNMNNVKMFQAHKEAIREASFSPTDNKFATCSDDGTVRIWDFLRCHEERILRGHGADVKCVDWHPTKGLVVSGSKDSQQPIKFWDPKTGQSLATLHAHKNTVMEVKLNLNGNWLLTASRDHLCKLFDIRNLKEELQVFRGHKKEATAVAWHPVHEGLFASGGSDGSLLFWHVGVEKEVGGMEMAHEGMIWSLAWHPLGHILCSGSNDHTSKFWTRNRPGDKMRDRYNLNLLPGMSEDGVEYDDLEPNSLAVIPGMGIPEQLKLAMEQEQMGKDESNEIEMTIPGLDWGMEEVMQKDQKKVPQKKVPYAKPIPAQFQQAWMQNKVPIPAPNEVLNDRKEDIKLEEKKKTQAEIEQEMATLQYTNPQLLEQLKIERLAQKQVEQIQPPPSSGTPLLGPQPFPGQGPMSQIPQGFQQPHPSQQMPMNMAQMGPPGPQGQFRPPGPQGQMGPQGPPLHQGGGGPQGFMGPQGPQGPPQGLPRPQDMHGPQGMQRHPGPHGPLGPQGPPGPQGSSGPQGHMGPQGPPGPQGHIGPQGPPGPQGHLGPQGPPGTQGMQGPPGPRGMQGPPHPHGIQGGPGSQGIQGPVSQGPLMGLNPRGMQGPPGPRENQGPAPQGMIMGHPPQEMRGPHPPGGLLGHGPQEMRGPQEIRGMQGPPPQGSMLGPPQELRGPPGSQSQQGPPQGSLGPPPQGGMQGPPGPQGQQNPARGPHPSQGPIPFQQQKTPLLGDGPRAPFNQEGQSTGPPPLIPGLGQQGAQGRIPPLNPGQGPGPNKGDSRGPPNHHMGPMSERRHEQSGGPEHGPERGPFRGGQDCRGPPDRRGPHPDFPDDFSRPDDFHPDKRFGHRLREFEGRGGPLPQEEKWRRGGPGPPFPPDHREFSEGDGRGAARGPPGAWEGRRPGDERFPRDPEDPRFRGRREESFRRGAPPRHEGRAPPRGRDGFPGPEDFGPEENFDASEEAARGRDLRGRGRGTPRGGRKGLLPTPDEFPRFEGGRKPDSWDGNREPGPGHEHFRDTPRPDHPPHDGHSPASRERSSSLQGMDMASLPPRKRPWHDGPGTSEHREMEAPGGPSEDRGGKGRGGPGPAQRVPKSGRSSSLDGEHHDGYHRDEPFGGPPGSGTPSRGGRSGSNWGRGSNMNSGPPRRGASRGGGRGR [WDR33]”, the “solubility in G1/S (log2)” value in the data set with HeLa Kyoto [1] is -0.421. For the same substance, the values for the melting temperature in the data set with HeLa Kyoto [2] (cell cycle stage: G1/S) and in the data set on HeLa Kyoto [2] (cell cycle stage: mitosis) were 49.3 °C and 49.8 °C, respectively. Moreover, the “solubility change mitosis (log2)” value in the data set on HeLa Kyoto [3] came to 0.257. The results for the thermal stability score in the data set with HeLa Kyoto [4] (setting [5]) and in the data set on HeLa Kyoto [4] (cell cycle stage: mitosis) were 0.933 and 1.06, respectively.
